{"source": "patent US20200353078A1", "about": "(AstraZeneca / MedImmune, published 2020)", "key": {"[1]": {"target": "T1, Human IL-33 (Axxora/Adipogen AG-40B-0038) (human, UniProt O95760 112-270, limits assumed)", "T1 sequence (looked up)": "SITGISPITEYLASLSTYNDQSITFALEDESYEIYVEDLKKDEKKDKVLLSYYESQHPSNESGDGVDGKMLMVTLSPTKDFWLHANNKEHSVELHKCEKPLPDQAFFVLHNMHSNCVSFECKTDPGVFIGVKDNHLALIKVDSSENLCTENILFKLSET", "experiment": "cell-based or functional assay"}, "[2]": {"target": "T2, Human IL-33 (Axxora/Alexis ALX-522-098) (human, UniProt O95760 112-270)", "T2 sequence (looked up)": "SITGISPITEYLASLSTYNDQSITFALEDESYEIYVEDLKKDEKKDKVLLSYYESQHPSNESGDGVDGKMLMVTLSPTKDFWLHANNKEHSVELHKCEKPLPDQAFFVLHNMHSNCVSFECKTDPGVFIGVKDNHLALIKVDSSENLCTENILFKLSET", "experiment": "cell-based or functional assay"}, "Mouse IL-33 Flag®His [3]": {"target": "T3, Mouse IL-33 Flag®His (mouse)", "T3 construct": "C-terminal FLAG 10xHis tag, E. coli; also called Mature Mouse IL-33_FH; mouse IL-33 FH", "T3 chain": "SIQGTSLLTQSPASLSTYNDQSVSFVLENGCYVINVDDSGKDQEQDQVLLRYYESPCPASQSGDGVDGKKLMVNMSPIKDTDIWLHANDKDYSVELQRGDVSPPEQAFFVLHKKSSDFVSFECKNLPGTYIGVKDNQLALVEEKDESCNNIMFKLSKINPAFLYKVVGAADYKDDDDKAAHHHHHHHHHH", "experiment": "ELISA, biotinylated antigen on streptavidin plate, purified IgG", "procedure": "(§1) Streptavidin plates (Thermo Scientific, AB-1226) were coated with biotinylated antigen at 0.5 μg/ml in PBS and incubated overnight at 4° C. Plates were washed 3× with PBS and blocked with 300 μl/well blocking buffer (PBS-M) for 1 hour. Plates were washed 1× with PBS and blocked samples added, 50 μl/well for 1 hour at room temperature. […] Plates were washed 3× with PBS-T and developed with TMB, 50 μl/well (Sigma, T0440). The reaction was quenched with 50 μl/well 0.1M H2504 before reading on an EnVision™ plate reader, or similar equipment, at 450 nm.\n(§2) Species cross-reactivity of anti-IL-33 antibodies was determined using a plate-based ELISA. Streptavidin plates (Thermo Scientific, AB-1226) were coated with biotinylated antigen at 0.5 μg/ml in PBS. Binding of purified IgG preparations was detected with anti-human IgG HRP (Sigma, A0170)."}, "Human IL-33 Flag®His [4]": {"target": "T4, Human IL-33 Flag®His (human)", "T4 construct": "Mature IL-33 with C-terminal FLAG 10xHis tag, from E. coli; biotinylated via free cysteines where used biotinylated; also called Mature Human IL-33_FH; human IL-33 FH", "T4 chain": "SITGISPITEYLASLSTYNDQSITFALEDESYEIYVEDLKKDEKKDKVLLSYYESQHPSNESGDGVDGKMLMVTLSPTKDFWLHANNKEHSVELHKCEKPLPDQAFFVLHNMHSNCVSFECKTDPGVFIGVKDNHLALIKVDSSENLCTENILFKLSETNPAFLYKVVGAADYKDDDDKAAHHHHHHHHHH", "experiment": "ELISA, biotinylated antigen on streptavidin plate, anti-human IgG HRP", "procedure": "(§3) 96-well Greiner polypropylene plates (Greiner, 650201) were used for dilution preparation. Generally, each dilution was prepared in duplicate. IgG dilutions were allowed to block in PBS-M for 1 hour at room temperature before being used directly in ELISA experiments.\nas §1, §2"}, "[5]": {"target": "T5, Cynomolgus IL-33 Flag®His (cynomolgus monkey)", "T5 construct": "C-terminal FLAG 10xHis tag, E. coli; also called Mature Cynomolugus IL-33; cyno IL-33 FH", "T5 chain": "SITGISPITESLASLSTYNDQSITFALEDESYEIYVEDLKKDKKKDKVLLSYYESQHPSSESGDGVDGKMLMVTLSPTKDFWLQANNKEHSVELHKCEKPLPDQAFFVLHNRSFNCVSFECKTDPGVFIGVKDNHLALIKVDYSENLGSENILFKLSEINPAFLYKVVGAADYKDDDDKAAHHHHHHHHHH", "experiment": "ELISA, biotinylated antigen on streptavidin plate, anti-human IgG HRP", "procedure": "as §3, §1, §2"}, "[6]": {"target": "T1, Human IL-33 (Axxora/Adipogen …)", "experiment": "cell-based or functional assay", "remark": "listed apart in the source"}, "[7]": {"target": "T1, Human IL-33 (Axxora/Adipogen …)", "experiment": "cell-based or functional assay", "remark": "listed apart in the source"}, "Mouse IL-33 Flag®His [8]": {"target": "T3, Mouse IL-33 Flag®His", "experiment": "ELISA, biotinylated antigen on streptavidin plate, anti-human IgG HRP", "procedure": "as §3, §1, §2"}, "Human IL-33 Flag®His [9]": {"target": "T4, Human IL-33 Flag®His", "experiment": "BIAcore 2000 solution affinity, 48 h equilibration at 25 C, free IgG read on biotinylated IL-33 chip", "procedure": "The binding affinity of purified IgG samples of exemplary binding members to human, cynomolgus or mouse IL-33 was determined by solution affinity using a BIAcore 2000 (GE healthcare). A biotinylated-IL33 surface was immobilised on a streptavin coated sensor chip (GE healthcare cat. No. BR-1000-32). Anti-IL33 antibodies were incubated with various concentrations of unlabelled IL33 and equilibrated at 25° C. for 48 hours. The amount of free antibody was determined by flowing the samples over the IL33 chip and measuring the response compared to a standard curve of antibody. Affinities were determined using the solution affinity fit in BIAevaluation software. The affinities for antibodies IL330101, H338L293, IL330388, IL330396 binding to human, cynomolgus or mouse IL-33 are shown in Table 15."}, "[10]": {"target": "T6, Human ST2-Fc (R&D Systems, or source not stated in the example) (human, UniProt Q01638 19-328)", "T6 construct": "extracellular domain; also called sST2.Fc; sST2", "T6 sequence (looked up)": "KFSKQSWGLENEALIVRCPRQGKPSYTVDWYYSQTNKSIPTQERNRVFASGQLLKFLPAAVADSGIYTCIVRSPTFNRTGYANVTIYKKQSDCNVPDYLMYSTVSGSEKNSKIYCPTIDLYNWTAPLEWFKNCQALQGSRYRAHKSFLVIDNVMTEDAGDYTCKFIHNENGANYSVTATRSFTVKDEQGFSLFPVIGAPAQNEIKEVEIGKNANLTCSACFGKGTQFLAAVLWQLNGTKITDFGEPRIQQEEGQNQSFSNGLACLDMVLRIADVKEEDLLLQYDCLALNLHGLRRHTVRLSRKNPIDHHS", "experiment": "SPR BIAcore 2000, ST2 captured via Fc-tag on anti-human Fc, IL-33 7.8 nM to 0.24 nM as analyte, 1:1 Langmuir", "procedure": "The disulphide bonded IL-33 is likely a very different structure to the reduced, ST2-binding IL-33 form (FIG. 22, 23), and conversion to the disulphide bonded form was associated with loss of functional activity (FIG. 17C). To investigate this, the disulphide bonded form of IL-33 was tested for ability to bind ST2 by BIAcore analysis. Direct binding of IL-33 to the extracellular domain of ST2 was determined by Surface Plasmon Resonance using a BIAcore 2000 (GE healthcare). ST2 was immobilised via the Fc-tag using an anti-human Fc capture (GE healthcare BR-1003-39) on a CM5 sensor chip (GE healthcare BR-1003-99) to give a stable surface of approximately 150 RU. IL-33 was flowed over the surface at 30 ul/min for three minutes to determine association rates. Dissociation was measured by flowing buffer at 30 ul/min for 15 minutes. Sensorgrams were interpreted using BIAevaluation software and kinetics were determined using double reference subtracted sensorgrams using a 1:1 (Langmuir) binding model."}, "[11]": {"target": "T7, H338L293 (SEQ ID NOs 182 and 187)", "T7 construct": "IgG; also called H338L293_fgl; H338L293 IgG", "T7 sequence (VL, as listed by the source)": "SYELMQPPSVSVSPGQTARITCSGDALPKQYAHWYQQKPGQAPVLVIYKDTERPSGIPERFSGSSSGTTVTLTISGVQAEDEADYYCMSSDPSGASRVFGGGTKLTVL", "experiment": "Biacore T100, IgG captured on Protein G', 0.625-20 nM peptide as analyte, 1:1 fit", "from_the_text": "The identified peptide together with a truncate ([…]) and scrambled variants of both, were then chemically synthesised and used in confirmatory T100 Biacore (GE Healthcare) binding studies. Protein G′ (Sigma Aldrich, P4689) was covalently coupled to the surface of a CM5 sensor chip (GE Healthcare) using standard amine coupling reagents according to manufacturer's instructions. The protein G′ surface was used to capture H338L293 or ST2-Fc via the Fc domain to provide a surface density of approximately 290 RU per cycle. IL33 peptides prepared in HBS-EP+ buffer, at a range of concentrations were passed over the sensor chip surface. The surface was regenerated using two 10 mM Glycine washes of pH 1.7 and pH 1.5 between each injection of antibody. The resulting sensorgrams were evaluated using Biacore T100 evaluation software 2.0.3 (GE Healthcare) and fitted to a 1:1 Langmuir binding model, to provide relative binding data."}}}
{"binder": "IL330065 IgG (antibody, V domains shown, IgG1 or IgG1-TM (L234F, L235E, P331S); functional data combine both formats) VH: EVQLVQSGAEVKKPGTAVKISCKASGYTFTDYYIHWVQQAPGKGLEWMGLVDPEDGETKYAEKFQGRVSITADTSTDTAYMELRSLTSEDTAVYFCTMGWAQWGRGTLVTVSS VL: QSVLTQPPSASGTPGQRVTISCSGSSSNIGSNYVYWYQQVPGTAPKLVIYRDFQRPSGVPDRFSGSKSGNSASLVISGLRSEDEGEYVCAAWDDSLTGPRFGGGTKVTVL", "values": [{"measurement": "IC50 (geomean), Huvec IL-6 production", "setting": "[1]", "value": 87, "unit": "nM"}, {"measurement": "IC50 (geomean), Mast cell IL-6 production", "setting": "[1]", "value": 12, "unit": "nM"}, {"measurement": "IC50 (geomean), TF-1 proliferation", "setting": "[2]", "value": 81, "unit": "nM"}, {"measurement": "binding result", "setting": "Mouse IL-33 Flag®His [3]", "value": "no binding"}, {"measurement": "EC50", "setting": "Human IL-33 Flag®His [4]", "value": 0.65, "unit": "nM"}, {"measurement": "EC50", "setting": "[5]", "value": 0.66, "unit": "nM"}]}
{"binder": "IL330101 IgG (antibody, V domains shown, IgG1 or IgG1-TM; also called mAb IL330101; IL3300101) VH: EVQLLESGGGLVQPGGSLRLSCAASGFTFSSYAMSWVRQAPGKGLEWVSAISGSGGSTYYADSVKGRFTISRDNSKNTLYLQMNSLRAEDTAVYYCVRVVAGYFDSWGRGTLVTVSS VL: SYVLTQPPSVSVSPGQTARITCSGDALPKQYAHWYQQKPGQAPALVIYKDTERPSGIPERFSGSSSGTTVTLTISGVQAEDEADYYCQSADSSGASRVFGGGTKVTVL", "values": [{"measurement": "Huvec IL-6 production, maximum inhibition", "setting": "[6]", "value": "~70", "unit": "%"}, {"measurement": "Mast cell IL-6 production, inhibition", "setting": "[6]", "value": 100, "unit": "%"}, {"measurement": "IC50 (geomean), Huvec IL-6 production", "setting": "[1]", "value": 497, "unit": "nM"}, {"measurement": "IC50 (geomean), Mast cell IL-6 production", "setting": "[1]", "value": 49, "unit": "nM"}, {"measurement": "IC50, TF-1 proliferation", "setting": "[2]", "value": 149, "unit": "nM"}, {"measurement": "IC50, Huvec IL-6 production", "setting": "[7]", "value": 193, "unit": "nM"}, {"measurement": "IC50, Mast cell IL-6 production", "setting": "[7]", "value": 93, "unit": "nM"}, {"measurement": "EC50", "setting": "Human IL-33 Flag®His [4]", "value": 1.19, "unit": "nM"}, {"measurement": "EC50", "setting": "[5]", "value": 1.2, "unit": "nM"}, {"measurement": "EC50", "setting": "Mouse IL-33 Flag®His [8]", "value": 0.85, "unit": "nM"}, {"measurement": "Kd", "setting": "Human IL-33 Flag®His [9]", "value": 0.0032, "unit": "pM"}]}
{"binder": "redIL-33 (detagged human IL33-01, BK349) (ligand, UniProt O95760 112-270, looked up, Reduced form; also called reduced IL-33; Human IL33-01 detagged) SITGISPITEYLASLSTYNDQSITFALEDESYEIYVEDLKKDEKKDKVLLSYYESQHPSNESGDGVDGKMLMVTLSPTKDFWLHANNKEHSVELHKCEKPLPDQAFFVLHNMHSNCVSFECKTDPGVFIGVKDNHLALIKVDSSENLCTENILFKLSET", "values": [{"measurement": "Kd", "setting": "[10]", "value": 0.2, "unit": "nM"}]}
{"binder": "LSPTKDFWLHANNKEHSVELHK (Chemically synthesised; also called truncate peptide)", "note": "[Truncated IL-33 epitope peptide]", "values": [{"measurement": "Kd", "setting": "[11]", "value": 2.36, "unit": "nM"}]}
